# According to patent publication US20190271705A1 (published 2019):
# B1: S10A (designed binder)
# chain: MKIEEHHHHHHSSGRENLYFQGGAAQPAAPVDSIQAEEWYFGKLGRKDAERQLLSFGNPRGTFLIRESETTKGAYALSIRDWDDMKGDHVKHYKIRKLDNGGYYITTRAQFETLQQLVQHYSERAAGLSSRLVVPSHKGAAA
# B2: T8V K15L (designed binder)
# chain: MKIEEHHHHHHSSGRENLYFQGGAAQPAAPVDSIQAEEWYFGKLGRKDAERQLLSFGNPRGTFLIRESETVKGAYSLSIRDWDDMKGDHVKHYLIRKLDNGGYYITTRAQFETLQQLVQHYSERAAGLSSRLVVPSHKGAAA
# B3: T8I S10A K15L (designed binder)
# chain: MKIEEHHHHHHSSGRENLYFQGGAAQPAAPVDSIQAEEWYFGKLGRKDAERQLLSFGNPRGTFLIRESETIKGAYALSIRDWDDMKGDHVKHYLIRKLDNGGYYITTRAQFETLQQLVQHYSERAAGLSSRLVVPSHKGAAA
# B4: T7S S10A K15L (designed binder)
# chain: MKIEEHHHHHHSSGRENLYFQGGAAQPAAPVDSIQAEEWYFGKLGRKDAERQLLSFGNPRGTFLIRESESTKGAYALSIRDWDDMKGDHVKHYLIRKLDNGGYYITTRAQFETLQQLVQHYSERAAGLSSRLVVPSHKGAAA
# B5: S10V K15L (designed binder)
# chain: MKIEEHHHHHHSSGRENLYFQGGAAQPAAPVDSIQAEEWYFGKLGRKDAERQLLSFGNPRGTFLIRESETTKGAYVLSIRDWDDMKGDHVKHYLIRKLDNGGYYITTRAQFETLQQLVQHYSERAAGLSSRLVVPSHKGAAA
# B6: K2E T8V S10A K15I (designed binder)
# chain: MKIEEHHHHHHSSGRENLYFQGGAAQPAAPVDSIQAEEWYFGKLGREDAERQLLSFGNPRGTFLIRESETVKGAYALSIRDWDDMKGDHVKHYIIRKLDNGGYYITTRAQFETLQQLVQHYSERAAGLSSRLVVPSHKGAAA
# B7: none (wild-type) (other)
# chain: MKIEEHHHHHHSSGRENLYFQGGAAQPAAPVDSIQAEEWYFGKLGRKDAERQLLSFGNPRGTFLIRESETTKGAYSLSIRDWDDMKGDHVKHYKIRKLDNGGYYITTRAQFETLQQLVQHYSERAAGLSSRLVVPSHKGAAA
# B8: K15L (designed binder)
# chain: MKIEEHHHHHHSSGRENLYFQGGAAQPAAPVDSIQAEEWYFGKLGRKDAERQLLSFGNPRGTFLIRESETTKGAYSLSIRDWDDMKGDHVKHYLIRKLDNGGYYITTRAQFETLQQLVQHYSERAAGLSSRLVVPSHKGAAA
# B9: S10A K15L (designed binder)
# chain: MKIEEHHHHHHSSGRENLYFQGGAAQPAAPVDSIQAEEWYFGKLGRKDAERQLLSFGNPRGTFLIRESETTKGAYALSIRDWDDMKGDHVKHYLIRKLDNGGYYITTRAQFETLQQLVQHYSERAAGLSSRLVVPSHKGAAA
# B10: ΔT8 S10A K15L (designed binder)
# chain: MKIEEHHHHHHSSGRENLYFQGGAAQPAAPVDSIQAEEWYFGKLGRKDAERQLLSFGNPRGTFLIRESETTKGAYSLSIRDWDDMKGDHVKHYKIRKLDNGGYYITTRAQFETLQQLVQHYSERAAGLSSRLVVPSHKGAAA
# B11: S10V (designed binder)
# chain: MKIEEHHHHHHSSGRENLYFQGGAAQPAAPVDSIQAEEWYFGKLGRKDAERQLLSFGNPRGTFLIRESETTKGAYVLSIRDWDDMKGDHVKHYKIRKLDNGGYYITTRAQFETLQQLVQHYSERAAGLSSRLVVPSHKGAAA
# B12: T8V S10A K15I (designed binder)
# chain: MKIEEHHHHHHSSGRENLYFQGGAAQPAAPVDSIQAEEWYFGKLGRKDAERQLLSFGNPRGTFLIRESETVKGAYALSIRDWDDMKGDHVKHYIIRKLDNGGYYITTRAQFETLQQLVQHYSERAAGLSSRLVVPSHKGAAA
# B13: T8V S10A K15L (designed binder)
# chain: MKIEEHHHHHHSSGRENLYFQGGAAQPAAPVDSIQAEEWYFGKLGRKDAERQLLSFGNPRGTFLIRESETVKGAYALSIRDWDDMKGDHVKHYLIRKLDNGGYYITTRAQFETLQQLVQHYSERAAGLSSRLVVPSHKGAAA
# B14: T8V (designed binder)
# chain: MKIEEHHHHHHSSGRENLYFQGGAAQPAAPVDSIQAEEWYFGKLGRKDAERQLLSFGNPRGTFLIRESETVKGAYSLSIRDWDDMKGDHVKHYKIRKLDNGGYYITTRAQFETLQQLVQHYSERAAGLSSRLVVPSHKGAAA
# Legend:
# Assay in all cases: fluorescence polarization
# RSKL-pY423 = target: RSKL-pY423
# TRAF7-pY275mod = target: TRAF7-pY275mod
# VEGFR1-pY1213mod = target: VEGFR1-pY1213mod
# SIG11-pY668 = target: SIG11-pY668
# EGFR-pY1110 = target: EGFR-pY1110
# EGFR-pY978 = target: EGFR-pY978
# MidT-pY324 = target: MidT-pY324
Binder,Kd (RSKL-pY423),Kd (TRAF7-pY275mod),Kd (VEGFR1-pY1213mod),Kd (SIG11-pY668),Kd (EGFR-pY1110),Kd (EGFR-pY978),Kd (MidT-pY324)
B1,2500 nM,1300 nM,5800 nM,48 nM,13000 nM,1100 nM,120 nM
B2,530 nM,450 nM,440 nM,150 nM,1700 nM,120 nM,140 nM
B3,190 nM,330 nM,180 nM,120 nM,700 nM,32 nM,43 nM
B4,1500 nM,300 nM,640 nM,71 nM,1600 nM,210 nM,49 nM
B5,1500 nM,2100 nM,1600 nM,320 nM,4400 nM,430 nM,94 nM
B6,2500 nM,990 nM,580 nM,900 nM,3800 nM,170 nM,280 nM
B7,12000 nM,6000 nM,–,430 nM,26000 nM,–,490 nM
B8,3300 nM,2200 nM,2800 nM,450 nM,5800 nM,670 nM,420 nM
B9,1600 nM,480 nM,400 nM,120 nM,2000 nM,130 nM,110 nM
B10,6100 nM,2700 nM,–,550 nM,15000 nM,–,260 nM
B11,6500 nM,4500 nM,9000 nM,660 nM,34000 nM,5500 nM,360 nM
B12,880 nM,450 nM,410 nM,190 nM,1400 nM,130 nM,98 nM
B13,77 nM,60 nM,58 nM,26 nM,340 nM,8.5 nM,11 nM
B14,14000 nM,5800 nM,24000 nM,1200 nM,41000 nM,2400 nM,370 nM
